# ± gives the standard deviation of the averaged measurements.
# Tested on: ATP
# Assay: switch fluorescence ratio, 500 uM ATP over buffer (Cy3 cluster intensity, sum of 5 cycles each) (fold (ratio)); higher = stronger signal-on switching upon ATP binding; sequences stand for … in TCGTCGGCAGCGTCAGATGTGTATAAGAGACAGTTTTTTTTTTTTTTTTTTTTTTTTT…TC
# Conditions: aptamer strand: ATP DNA aptamer (quencher-CACCTGGGGGAGTATTGCGGAGGAAGG + anchor), 100 nM annealed; ATP concentration: 500 uM
# Outline: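 Cy3-labelled switching-strand clusters on a modified Illumina MiSeq flow-cell were annealed to 100 nM quencher-labelled ATP aptamer and imaged first in selection buffer, then after 15 min with 500 uM ATP at 22 °C. NaOH stripping and re-annealing separated each of five buffer/ATP cycles, and clusters outside 100-1000 RFU were excluded. The fluorescence ratio sums target-cycle Cy3 intensity over buffer-cycle Cy3 intensity per cluster and averages it per switch-domain sequence.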
# 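Further: ATP exposure 15 min at 22 °C before imaging.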
sequence,measurement,value
CGGGGGGGGG,switch fluorescence ratio,1.02 ± 0.054
CGGGGGGTCT,switch fluorescence ratio,0.999 ± 0.04
CGGGGGTACG,switch fluorescence ratio,1.02 ± 0.074
CGGGGGTAGA,switch fluorescence ratio,0.966 ± 0.042
CGGGGGTAGG,switch fluorescence ratio,1.03 ± 0.049
CGGGGGTCGG,switch fluorescence ratio,0.978 ± 0.012
CGGGGGTCTT,switch fluorescence ratio,1 ± 0.021
CGGGGGTTAG,switch fluorescence ratio,0.999 ± 0.033
CGGGGGTTTT,switch fluorescence ratio,0.994 ± 0.034
CGGGGTATGG,switch fluorescence ratio,1 ± 0.011
CGGGGTCGTA,switch fluorescence ratio,1 ± 0.047
CGGGGTCTTC,switch fluorescence ratio,0.996 ± 0.012
CGGGGTGCGA,switch fluorescence ratio,1.02 ± 0.021
CGGGGTTCGA,switch fluorescence ratio,1 ± 0.011
CGGGGTTGCT,switch fluorescence ratio,1.03 ± 0.054
CGGGGTTGGT,switch fluorescence ratio,1.01 ± 0.016
CGGGGTTGTC,switch fluorescence ratio,0.966 ± 0.069
CGGGTAAGTG,switch fluorescence ratio,0.97 ± 0.014
CGGGTATAGG,switch fluorescence ratio,1.013 ± 0.01
CGGGTATGAT,switch fluorescence ratio,1.031 ± 0.0092
CGGGTATTCT,switch fluorescence ratio,0.974 ± 0.046
CGGGTATTTA,switch fluorescence ratio,1.01 ± 0.025
CGGGTATTTT,switch fluorescence ratio,0.9878 ± 0.0043
CGGGTCTGTT,switch fluorescence ratio,0.979 ± 0.047
CGGGTGACTC,switch fluorescence ratio,1.02 ± 0.012
CGGGTGAGCT,switch fluorescence ratio,1.11 ± 0.16
CGGGTGAGTT,switch fluorescence ratio,1.15 ± 0.25
CGGGTGCCGT,switch fluorescence ratio,1.06 ± 0.15
CGGGTGCGGG,switch fluorescence ratio,1.02 ± 0.038
CGGGTGGGAG,switch fluorescence ratio,0.991 ± 0.038
CGGGTGGGTG,switch fluorescence ratio,1.01 ± 0.013
CGGGTGGTTG,switch fluorescence ratio,1.04 ± 0.04
CGGGTGTGAG,switch fluorescence ratio,1.006 ± 0.0055
CGGGTGTGCG,switch fluorescence ratio,0.955 ± 0.088
CGGGTGTGGC,switch fluorescence ratio,1.05 ± 0.015
CGGGTTAGTG,switch fluorescence ratio,0.992 ± 0.023
CGGGTTGGGC,switch fluorescence ratio,1.07 ± 0.027
CGGGTTGTCT,switch fluorescence ratio,0.963 ± 0.1
CGGGTTGTTA,switch fluorescence ratio,0.9951 ± 0.0081
CGGGTTTTGA,switch fluorescence ratio,1.003 ± 0.0086
CGGTAAAAAG,switch fluorescence ratio,1.01 ± 0.017
CGGTAAATGG,switch fluorescence ratio,1.02 ± 0.04
CGGTAAGGGG,switch fluorescence ratio,0.987 ± 0.01
CGGTAATGGG,switch fluorescence ratio,0.943 ± 0.031
CGGTACGCTG,switch fluorescence ratio,1.01 ± 0.017
CGGTACGTTT,switch fluorescence ratio,1.007 ± 0.0015
CGGTAGGATC,switch fluorescence ratio,0.995 ± 0.03
CGGTAGGGGT,switch fluorescence ratio,0.969 ± 0.028
CGGTAGGGTA,switch fluorescence ratio,0.991 ± 0.026
CGGTAGTATC,switch fluorescence ratio,0.982 ± 0.049
CGGTAGTCGA,switch fluorescence ratio,1.02 ± 0.052
CGGTATCCGT,switch fluorescence ratio,0.978 ± 0.062
CGGTATCTGA,switch fluorescence ratio,0.9888 ± 0.006
CGGTATTGGT,switch fluorescence ratio,0.976 ± 0.031
CGGTATTTGC,switch fluorescence ratio,0.979 ± 0.0099
CGGTATTTTT,switch fluorescence ratio,1.02 ± 0.028
CGGTCAACG,switch fluorescence ratio,0.993 ± 0.022
CGGTCACGCG,switch fluorescence ratio,0.972 ± 0.039
CGGTCAGGGA,switch fluorescence ratio,1.01 ± 0.037
CGGTCATTCA,switch fluorescence ratio,1.02 ± 0.055
CGGTCCGGG,switch fluorescence ratio,1.05 ± 0.061
CGGTCCGGTT,switch fluorescence ratio,0.9862 ± 0.0018
CGGTCGCAGT,switch fluorescence ratio,1.02 ± 0.055
CGGTCGGGAA,switch fluorescence ratio,1.005 ± 0.01
CGGTCGGGAT,switch fluorescence ratio,0.9606 ± 0.0031
CGGTCGGGCG,switch fluorescence ratio,1.03 ± 0.023
CGGTCTATTG,switch fluorescence ratio,1.002 ± 0.0098
CGGTCTCATC,switch fluorescence ratio,1.02 ± 0.014
CGGTGAAGTT,switch fluorescence ratio,0.966 ± 0.01
CGGTGCATGG,switch fluorescence ratio,0.991 ± 0.1
CGGTGCCTTG,switch fluorescence ratio,0.978 ± 0.026
CGGTGCGATT,switch fluorescence ratio,1.03 ± 0.019
CGGTGCTACT,switch fluorescence ratio,1.03 ± 0.063
CGGTGCTGCG,switch fluorescence ratio,1.065 ± 0.0039
CGGTGGCTCC,switch fluorescence ratio,1.026 ± 0.0025
CGGTGGGAGA,switch fluorescence ratio,1.023 ± 0.0078
CGGTGGGAGT,switch fluorescence ratio,0.973 ± 0.03
CGGTGGGGGA,switch fluorescence ratio,0.986 ± 0.025
CGGTGGGGGC,switch fluorescence ratio,0.9806 ± 0.0057
CGGTGGTGAG,switch fluorescence ratio,1.012 ± 0.0049
CGGTGGTTGT,switch fluorescence ratio,0.9948 ± 0.0052
CGGTGTACGC,switch fluorescence ratio,1.061 ± 0.0034
CGGTGTATCG,switch fluorescence ratio,0.983 ± 0.027
CGGTGTGTCT,switch fluorescence ratio,1.02 ± 0.019
CGGTGTTGTT,switch fluorescence ratio,1.018 ± 0.0014
CGGTGTTTGG,switch fluorescence ratio,0.972 ± 0.015
CGGTTAGACT,switch fluorescence ratio,0.975 ± 0.05
CGGTTAGTGT,switch fluorescence ratio,0.971 ± 0.035
CGGTTATATG,switch fluorescence ratio,1.02 ± 0.015
CGGTTCGCGT,switch fluorescence ratio,0.972 ± 0.031
CGGTTCTCTC,switch fluorescence ratio,1.02 ± 0.013
CGGTTGACTT,switch fluorescence ratio,0.992 ± 0.057
CGGTTGATGC,switch fluorescence ratio,0.997 ± 0.059
CGGTTGGTGA,switch fluorescence ratio,0.974 ± 0.035
CGGTTGTACC,switch fluorescence ratio,1.007 ± 0.0079
CGGTTGTGAA,switch fluorescence ratio,0.963 ± 0.018
CGGTTGTGGG,switch fluorescence ratio,0.996 ± 0.018
CGGTTTCTGG,switch fluorescence ratio,0.9856 ± 0.0053
CGGTTTCTTT,switch fluorescence ratio,0.967 ± 0.053
CGGTTTGACT,switch fluorescence ratio,0.9563 ± 0.0063
CGGTTTGCGG,switch fluorescence ratio,0.982 ± 0.017
CGGTTTGGAT,switch fluorescence ratio,1.01 ± 0.035
CGGTTTGGTG,switch fluorescence ratio,1.01 ± 0.029
CGGTTTTAAG,switch fluorescence ratio,1.02 ± 0.018
CGGTTTTGTA,switch fluorescence ratio,0.971 ± 0.028
CGGTTTTGTT,switch fluorescence ratio,1.02 ± 0.035
CGTAAAAGAT,switch fluorescence ratio,1.04 ± 0.06
CGTAAAATCG,switch fluorescence ratio,0.995 ± 0.042
CGTAAATTAT,switch fluorescence ratio,0.993 ± 0.029
CGTAAATTGG,switch fluorescence ratio,1.02 ± 0.013
CGTAATAAGG,switch fluorescence ratio,0.98799 ± 0.00022
CGTAATGAAG,switch fluorescence ratio,1.004 ± 0.0064
CGTAATGCCT,switch fluorescence ratio,1.03 ± 0.098
CGTACATGT,switch fluorescence ratio,1.02 ± 0.024
CGTACGTCAT,switch fluorescence ratio,1.08 ± 0.04
CGTACGTTCT,switch fluorescence ratio,1.026 ± 0.0096
CGTACTTCCG,switch fluorescence ratio,1.019 ± 0.0053
CGTACTTGGG,switch fluorescence ratio,0.982 ± 0.011
CGTAGAATGT,switch fluorescence ratio,0.992 ± 0.022
CGTAGAGAGG,switch fluorescence ratio,0.998 ± 0.0029
CGTAGCTTTT,switch fluorescence ratio,1.82 ± 0.67
CGTAGGCGTA,switch fluorescence ratio,0.98 ± 0.03
CGTAGGGGCT,switch fluorescence ratio,1 ± 0.011
CGTAGTTCTT,switch fluorescence ratio,1.01 ± 0.03
CGTAGTTTCG,switch fluorescence ratio,1.013 ± 0.008
CGTAGTTTTA,switch fluorescence ratio,1.044 ± 0.0041
CGTATAGGAT,switch fluorescence ratio,1.01 ± 0.036
CGTATATAGT,switch fluorescence ratio,1.01 ± 0.014
CGTATATGTG,switch fluorescence ratio,0.989 ± 0.035
CGTATCAAAA,switch fluorescence ratio,1.02 ± 0.019
CGTATGAAAA,switch fluorescence ratio,1 ± 0.014
CGTATGAAGA,switch fluorescence ratio,1.02 ± 0.016
CGTATGCAGT,switch fluorescence ratio,1.01 ± 0.011
CGTATGCTGG,switch fluorescence ratio,1.02 ± 0.019
CGTATGGGAA,switch fluorescence ratio,1.026 ± 0.0082
CGTATTAGGT,switch fluorescence ratio,0.9553 ± 0.0086
CGTATTATTA,switch fluorescence ratio,0.988 ± 0.03
CGTATTCGCT,switch fluorescence ratio,0.993 ± 0.021
CGTATTTCAG,switch fluorescence ratio,0.983 ± 0.011
CGTCAACTGC,switch fluorescence ratio,1.17 ± 0.039
CGTCACCGGG,switch fluorescence ratio,1.11 ± 0.032
CGTCACTAGC,switch fluorescence ratio,1.04 ± 0.022
CGTCAGGGGG,switch fluorescence ratio,0.972 ± 0.027
CGTCATGGGT,switch fluorescence ratio,1 ± 0.035
CGTCATTTTC,switch fluorescence ratio,1.05 ± 0.1
CGTCCATTGA,switch fluorescence ratio,1.03 ± 0.019
CGTCCGGATG,switch fluorescence ratio,1.19 ± 0.13
CGTCCGGCAG,switch fluorescence ratio,1.67 ± 0.083
CGTCCTATTT,switch fluorescence ratio,1.01 ± 0.029
CGTCCTCATG,switch fluorescence ratio,1.302 ± 0.0067
CGTCGAGTGC,switch fluorescence ratio,0.962 ± 0.011
CGTCGCCGGT,switch fluorescence ratio,1 ± 0.0078
CGTCGGAGGG,switch fluorescence ratio,0.977 ± 0.013
